Data: patent US9657062B2, “Ghrelin analogues” (Zealand Pharma A/S, priority 2012, dated 2017)
The star is where a group is joined. Octanoyl = CCCCCCCC(=O)*; Octyl = CCCCCCCC*

B1: H-PS-S(octanoyl)-FLSPEHQRVQQRKESKKPPASLQPR-NH2 (peptide)
peptide: H-PSS(Octanoyl)FLSPEHQRVQQRKESKKPPASLQPR-NH2
SMILES: CCCCCCCC(=O)OC[C@H](NC(=O)[C@H](CO)NC(=O)[C@@H]1CCCN1)C(=O)N[C@@H](Cc1ccccc1)C(=O)N[C@@H](CC(C)C)C(=O)N[C@@H](CO)C(=O)N1CCC[C@H]1C(=O)N[C@@H](CCC(=O)O)C(=O)N[C@@H](Cc1c[nH]cn1)C(=O)N[C@@H](CCC(N)=O)C(=O)N[C@@H](CCCNC(=N)N)C(=O)N[C@H](C(=O)N[C@@H](CCC(N)=O)C(=O)N[C@@H](CCC(N)=O)C(=O)N[C@@H](CCCNC(=N)N)C(=O)N[C@@H](CCCCN)C(=O)N[C@@H](CCC(=O)O)C(=O)N[C@@H](CO)C(=O)N[C@@H](CCCCN)C(=O)N[C@@H](CCCCN)C(=O)N1CCC[C@H]1C(=O)N1CCC[C@H]1C(=O)N[C@@H](C)C(=O)N[C@@H](CO)C(=O)N[C@@H](CC(C)C)C(=O)N[C@@H](CCC(N)=O)C(=O)N1CCC[C@H]1C(=O)N[C@@H](CCCNC(=N)N)C(N)=O)C(C)C
B2: H-PS-S(O-octyl)-FLSPEHSRPSSRPESSSPPAKLSPR-NH2 (peptide)
peptide: H-PSS(Octyl)FLSPEHSRPSSRPESSSPPAKLSPR-NH2
SMILES: CCCCCCCCOC[C@H](NC(=O)[C@H](CO)NC(=O)[C@@H]1CCCN1)C(=O)N[C@@H](Cc1ccccc1)C(=O)N[C@@H](CC(C)C)C(=O)N[C@@H](CO)C(=O)N1CCC[C@H]1C(=O)N[C@@H](CCC(=O)O)C(=O)N[C@@H](Cc1c[nH]cn1)C(=O)N[C@@H](CO)C(=O)N[C@@H](CCCNC(=N)N)C(=O)N1CCC[C@H]1C(=O)N[C@@H](CO)C(=O)N[C@@H](CO)C(=O)N[C@@H](CCCNC(=N)N)C(=O)N1CCC[C@H]1C(=O)N[C@@H](CCC(=O)O)C(=O)N[C@@H](CO)C(=O)N[C@@H](CO)C(=O)N[C@@H](CO)C(=O)N1CCC[C@H]1C(=O)N1CCC[C@H]1C(=O)N[C@@H](C)C(=O)N[C@@H](CCCCN)C(=O)N[C@@H](CC(C)C)C(=O)N[C@@H](CO)C(=O)N1CCC[C@H]1C(=O)N[C@@H](CCCNC(=N)N)C(N)=O
B3: H-PS-S(octanoyl)-FLSPEHQRVQQRKESSKPPAKLQPR-NH2 (peptide)
peptide: H-PSS(Octanoyl)FLSPEHQRVQQRKESSKPPAKLQPR-NH2
SMILES: CCCCCCCC(=O)OC[C@H](NC(=O)[C@H](CO)NC(=O)[C@@H]1CCCN1)C(=O)N[C@@H](Cc1ccccc1)C(=O)N[C@@H](CC(C)C)C(=O)N[C@@H](CO)C(=O)N1CCC[C@H]1C(=O)N[C@@H](CCC(=O)O)C(=O)N[C@@H](Cc1c[nH]cn1)C(=O)N[C@@H](CCC(N)=O)C(=O)N[C@@H](CCCNC(=N)N)C(=O)N[C@H](C(=O)N[C@@H](CCC(N)=O)C(=O)N[C@@H](CCC(N)=O)C(=O)N[C@@H](CCCNC(=N)N)C(=O)N[C@@H](CCCCN)C(=O)N[C@@H](CCC(=O)O)C(=O)N[C@@H](CO)C(=O)N[C@@H](CO)C(=O)N[C@@H](CCCCN)C(=O)N1CCC[C@H]1C(=O)N1CCC[C@H]1C(=O)N[C@@H](C)C(=O)N[C@@H](CCCCN)C(=O)N[C@@H](CC(C)C)C(=O)N[C@@H](CCC(N)=O)C(=O)N1CCC[C@H]1C(=O)N[C@@H](CCCNC(=N)N)C(N)=O)C(C)C
B4: H-PS-S(octanoyl)-FLSPEHQRVQQSKESKKPPAKLQPR-NH2 (peptide)
peptide: H-PSS(Octanoyl)FLSPEHQRVQQSKESKKPPAKLQPR-NH2
SMILES: CCCCCCCC(=O)OC[C@H](NC(=O)[C@H](CO)NC(=O)[C@@H]1CCCN1)C(=O)N[C@@H](Cc1ccccc1)C(=O)N[C@@H](CC(C)C)C(=O)N[C@@H](CO)C(=O)N1CCC[C@H]1C(=O)N[C@@H](CCC(=O)O)C(=O)N[C@@H](Cc1c[nH]cn1)C(=O)N[C@@H](CCC(N)=O)C(=O)N[C@@H](CCCNC(=N)N)C(=O)N[C@H](C(=O)N[C@@H](CCC(N)=O)C(=O)N[C@@H](CCC(N)=O)C(=O)N[C@@H](CO)C(=O)N[C@@H](CCCCN)C(=O)N[C@@H](CCC(=O)O)C(=O)N[C@@H](CO)C(=O)N[C@@H](CCCCN)C(=O)N[C@@H](CCCCN)C(=O)N1CCC[C@H]1C(=O)N1CCC[C@H]1C(=O)N[C@@H](C)C(=O)N[C@@H](CCCCN)C(=O)N[C@@H](CC(C)C)C(=O)N[C@@H](CCC(N)=O)C(=O)N1CCC[C@H]1C(=O)N[C@@H](CCCNC(=N)N)C(N)=O)C(C)C
B5: H-PS-S(octanoyl)-FLSPYHQRVQQRKESKKPPAKLQPR-NH2 (peptide)
peptide: H-PSS(Octanoyl)FLSPYHQRVQQRKESKKPPAKLQPR-NH2
SMILES: CCCCCCCC(=O)OC[C@H](NC(=O)[C@H](CO)NC(=O)[C@@H]1CCCN1)C(=O)N[C@@H](Cc1ccccc1)C(=O)N[C@@H](CC(C)C)C(=O)N[C@@H](CO)C(=O)N1CCC[C@H]1C(=O)N[C@@H](Cc1ccc(O)cc1)C(=O)N[C@@H](Cc1c[nH]cn1)C(=O)N[C@@H](CCC(N)=O)C(=O)N[C@@H](CCCNC(=N)N)C(=O)N[C@H](C(=O)N[C@@H](CCC(N)=O)C(=O)N[C@@H](CCC(N)=O)C(=O)N[C@@H](CCCNC(=N)N)C(=O)N[C@@H](CCCCN)C(=O)N[C@@H](CCC(=O)O)C(=O)N[C@@H](CO)C(=O)N[C@@H](CCCCN)C(=O)N[C@@H](CCCCN)C(=O)N1CCC[C@H]1C(=O)N1CCC[C@H]1C(=O)N[C@@H](C)C(=O)N[C@@H](CCCCN)C(=O)N[C@@H](CC(C)C)C(=O)N[C@@H](CCC(N)=O)C(=O)N1CCC[C@H]1C(=O)N[C@@H](CCCNC(=N)N)C(N)=O)C(C)C
B6: H-PS-S(octanoyl)-FLSPEHQRVQQRKESKSPPAKLQPR-NH2 (peptide)
peptide: H-PSS(Octanoyl)FLSPEHQRVQQRKESKSPPAKLQPR-NH2
SMILES: CCCCCCCC(=O)OC[C@H](NC(=O)[C@H](CO)NC(=O)[C@@H]1CCCN1)C(=O)N[C@@H](Cc1ccccc1)C(=O)N[C@@H](CC(C)C)C(=O)N[C@@H](CO)C(=O)N1CCC[C@H]1C(=O)N[C@@H](CCC(=O)O)C(=O)N[C@@H](Cc1c[nH]cn1)C(=O)N[C@@H](CCC(N)=O)C(=O)N[C@@H](CCCNC(=N)N)C(=O)N[C@H](C(=O)N[C@@H](CCC(N)=O)C(=O)N[C@@H](CCC(N)=O)C(=O)N[C@@H](CCCNC(=N)N)C(=O)N[C@@H](CCCCN)C(=O)N[C@@H](CCC(=O)O)C(=O)N[C@@H](CO)C(=O)N[C@@H](CCCCN)C(=O)N[C@@H](CO)C(=O)N1CCC[C@H]1C(=O)N1CCC[C@H]1C(=O)N[C@@H](C)C(=O)N[C@@H](CCCCN)C(=O)N[C@@H](CC(C)C)C(=O)N[C@@H](CCC(N)=O)C(=O)N1CCC[C@H]1C(=O)N[C@@H](CCCNC(=N)N)C(N)=O)C(C)C
B7: H-PS-S(octanoyl)-FLSPEHQRVQQRKESKKPPAKLQPS-NH2 (peptide)
peptide: H-PSS(Octanoyl)FLSPEHQRVQQRKESKKPPAKLQPS-NH2
SMILES: CCCCCCCC(=O)OC[C@H](NC(=O)[C@H](CO)NC(=O)[C@@H]1CCCN1)C(=O)N[C@@H](Cc1ccccc1)C(=O)N[C@@H](CC(C)C)C(=O)N[C@@H](CO)C(=O)N1CCC[C@H]1C(=O)N[C@@H](CCC(=O)O)C(=O)N[C@@H](Cc1c[nH]cn1)C(=O)N[C@@H](CCC(N)=O)C(=O)N[C@@H](CCCNC(=N)N)C(=O)N[C@H](C(=O)N[C@@H](CCC(N)=O)C(=O)N[C@@H](CCC(N)=O)C(=O)N[C@@H](CCCNC(=N)N)C(=O)N[C@@H](CCCCN)C(=O)N[C@@H](CCC(=O)O)C(=O)N[C@@H](CO)C(=O)N[C@@H](CCCCN)C(=O)N[C@@H](CCCCN)C(=O)N1CCC[C@H]1C(=O)N1CCC[C@H]1C(=O)N[C@@H](C)C(=O)N[C@@H](CCCCN)C(=O)N[C@@H](CC(C)C)C(=O)N[C@@H](CCC(N)=O)C(=O)N1CCC[C@H]1C(=O)N[C@@H](CO)C(N)=O)C(C)C
B8: H-PS-S(octanoyl)-FLSPEHQSVQQRKESKKPPAKLQPR-NH2 (peptide)
peptide: H-PSS(Octanoyl)FLSPEHQSVQQRKESKKPPAKLQPR-NH2
SMILES: CCCCCCCC(=O)OC[C@H](NC(=O)[C@H](CO)NC(=O)[C@@H]1CCCN1)C(=O)N[C@@H](Cc1ccccc1)C(=O)N[C@@H](CC(C)C)C(=O)N[C@@H](CO)C(=O)N1CCC[C@H]1C(=O)N[C@@H](CCC(=O)O)C(=O)N[C@@H](Cc1c[nH]cn1)C(=O)N[C@@H](CCC(N)=O)C(=O)N[C@@H](CO)C(=O)N[C@H](C(=O)N[C@@H](CCC(N)=O)C(=O)N[C@@H](CCC(N)=O)C(=O)N[C@@H](CCCNC(=N)N)C(=O)N[C@@H](CCCCN)C(=O)N[C@@H](CCC(=O)O)C(=O)N[C@@H](CO)C(=O)N[C@@H](CCCCN)C(=O)N[C@@H](CCCCN)C(=O)N1CCC[C@H]1C(=O)N1CCC[C@H]1C(=O)N[C@@H](C)C(=O)N[C@@H](CCCCN)C(=O)N[C@@H](CC(C)C)C(=O)N[C@@H](CCC(N)=O)C(=O)N1CCC[C@H]1C(=O)N[C@@H](CCCNC(=N)N)C(N)=O)C(C)C
B9: H-PS-S(octanoyl)-FLSPEHQRVQQRSESKKPPAKLQPR-NH2 (peptide)
peptide: H-PSS(Octanoyl)FLSPEHQRVQQRSESKKPPAKLQPR-NH2
SMILES: CCCCCCCC(=O)OC[C@H](NC(=O)[C@H](CO)NC(=O)[C@@H]1CCCN1)C(=O)N[C@@H](Cc1ccccc1)C(=O)N[C@@H](CC(C)C)C(=O)N[C@@H](CO)C(=O)N1CCC[C@H]1C(=O)N[C@@H](CCC(=O)O)C(=O)N[C@@H](Cc1c[nH]cn1)C(=O)N[C@@H](CCC(N)=O)C(=O)N[C@@H](CCCNC(=N)N)C(=O)N[C@H](C(=O)N[C@@H](CCC(N)=O)C(=O)N[C@@H](CCC(N)=O)C(=O)N[C@@H](CCCNC(=N)N)C(=O)N[C@@H](CO)C(=O)N[C@@H](CCC(=O)O)C(=O)N[C@@H](CO)C(=O)N[C@@H](CCCCN)C(=O)N[C@@H](CCCCN)C(=O)N1CCC[C@H]1C(=O)N1CCC[C@H]1C(=O)N[C@@H](C)C(=O)N[C@@H](CCCCN)C(=O)N[C@@H](CC(C)C)C(=O)N[C@@H](CCC(N)=O)C(=O)N1CCC[C@H]1C(=O)N[C@@H](CCCNC(=N)N)C(N)=O)C(C)C

The binders below were run against human growth hormone secretagogue receptor type 1a (human, UniProt Q92847 1-366) (assay: cell-based or functional assay).
Sequence of human growth hormone secretagogue receptor type 1a (Q92847 whole entry): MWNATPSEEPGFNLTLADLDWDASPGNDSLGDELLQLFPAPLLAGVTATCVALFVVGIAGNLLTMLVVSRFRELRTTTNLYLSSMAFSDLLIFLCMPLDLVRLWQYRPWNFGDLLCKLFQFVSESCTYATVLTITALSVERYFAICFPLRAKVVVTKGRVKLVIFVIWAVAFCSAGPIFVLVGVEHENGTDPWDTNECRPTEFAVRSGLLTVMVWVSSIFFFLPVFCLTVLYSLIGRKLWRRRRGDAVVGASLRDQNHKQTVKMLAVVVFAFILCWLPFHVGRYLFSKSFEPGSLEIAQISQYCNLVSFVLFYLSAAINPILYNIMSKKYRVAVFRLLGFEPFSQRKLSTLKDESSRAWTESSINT
In the case of B1, the “EC50 (nM); Ca2+ induction in HEK293 cells stably expressing the human ghrelin receptor” value (“EC50 (nM); Ca2+ induction” below) is reported as 0.183 nM. With B2 the “EC50 (nM); Ca2+ induction” value was 0.642 nM. B3 was tested, and the “EC50 (nM); Ca2+ induction” value was 0.095 nM. B4 was tested, and the “EC50 (nM); Ca2+ induction” value was 0.168 nM. For B5, the “EC50 (nM); Ca2+ induction” value was 0.719 nM. With B6 the “EC50 (nM); Ca2+ induction” value was 0.086 nM. With B7 the “EC50 (nM); Ca2+ induction” value was 0.039 nM. With B8 the “EC50 (nM); Ca2+ induction” value was 0.149 nM. With B9 the “EC50 (nM); Ca2+ induction” value was 0.182 nM.
